Test results taken from paper PMC5052687.

Target: human CD36 ectodomain (residues 35-439), C-terminal 8xHis and biotinylated BAP tag (human) (UniProt P16671)
Experiment: SPR; biotinylated CD36 (wild type or F153A) immobilised on a CAPture chip to ~700 RU; CIDRα domains as analytes, two-fold dilutions from 400 nM (Supplementary Figure 10: 400 nM only), 240 s injection, 300 s dissociation; 25 °C, 20 mM HEPES pH 7.5, 0.15 M NaCl, 0.005% Tween20; affinities from equilibrium binding, one site-binding model

Sequence of human CD36 ectodomain (residues 35-439), C-terminal 8xHis and biotinylated BAP tag (human) (P16671 35-439): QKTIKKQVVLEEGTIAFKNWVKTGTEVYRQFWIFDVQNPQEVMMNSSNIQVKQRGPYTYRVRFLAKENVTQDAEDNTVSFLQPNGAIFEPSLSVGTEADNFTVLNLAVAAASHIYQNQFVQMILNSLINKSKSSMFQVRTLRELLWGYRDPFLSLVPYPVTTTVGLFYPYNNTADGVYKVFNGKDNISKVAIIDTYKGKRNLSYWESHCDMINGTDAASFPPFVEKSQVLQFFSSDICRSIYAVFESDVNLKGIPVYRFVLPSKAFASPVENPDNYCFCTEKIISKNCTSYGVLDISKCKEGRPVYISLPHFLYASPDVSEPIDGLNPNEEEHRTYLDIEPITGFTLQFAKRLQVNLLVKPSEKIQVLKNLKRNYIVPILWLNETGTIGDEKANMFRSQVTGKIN

Which Kd does the source give for “IT4var26 CIDRα3.3 domain (domain or fragment)” here?
Its Kd is 9.6 nM.
